We go through one molecule from patent publication US20040116675A1 (published 2004).

The target of test [1] is T1, sCD28-Fc (extracellular domains of CD28 combined with the CH2 and CH3 domains of IgG1) (human, UniProt P10747 19-152).
T1 construct: extracellular domain; not shown: CH2 and CH3 domains of IgG1
Nature of the test: ELISA competition on coated sCD28-Fc against MuTN228-biotin, Expt 1.

In test [2] the target is T1, sCD28-Fc (extracellular domains of CD28 …). The experiment in a line: ELISA competition on coated sCD28-Fc against MuTN228-biotin, Expt 2.
Test [3] deals with T2, CD28 on P815/CD28+ cells (P815 mouse mastocytoma stably transfected with CD28) (human, UniProt P10747 19-220).
T2 construct: whole, on cells; also called CD28 antigen; CD28 molecules on P815/CD28^+ cells
The experiment in a line: competition against ^125I-labeled MuTN228 on P815/CD28+ cells, Expt 1.

Test [4] has as its target T2, CD28 on P815/CD28+ cells (P815 mouse …). Nature of the test: competition against ^125I-labeled MuTN228 on P815/CD28+ cells, Expt 2.
Test [5] has the same target. The experiment in a line: competition against ^125I-labeled MuTN228 on P815/CD28+ cells, Expt 3.
Test [6] concerns the target T1, sCD28-Fc (extracellular domains of CD28 …). Nature of the test: ELISA competition on coated sCD28-Fc against MuTN228-biotin, reference MuTN228.
The target of test [7] is T2, CD28 on P815/CD28+ cells (P815 mouse …). Nature of the test: competition against ^125I-labeled MuTN228 on P815/CD28+ cells, reference MuTN228.
For test [8], the target named is T1, sCD28-Fc (extracellular domains of CD28 …). Nature of the test: ELISA competition on coated sCD28-Fc against MuTN228-biotin, average of 3 experiments (Std. Dev. 0.14).
For test [9], the target named is T2, CD28 on P815/CD28+ cells (P815 mouse …). Nature of the test: competition against ^125I-labeled MuTN228 on P815/CD28+ cells, average of 3 experiments (St. Dev. 0.26).

B1: HuTN228 (humanized TN228-IgG2M3) (antibody, V domains shown)
VH: QVQLQESGPGLVKPSETLSLTCAVSGFSLTSYGVHWIRQPPGKGLEWLGVIWPGGGTNFNSALMSRLTISEDTSKNQVSLKLSSVTAADTAVYYCARDRAYGNYLYAMDYWGQGTLVTVSS
VL: DIQMTQSPSSLSASVGDRVTITCRASESVEYYVTSLMQWYQQKPGKAPKLLIYAASNVDSGVPSRFSGSGSGTDFTLTISSLQPEDIATYYCQQSRKVPFTFGGGTKVEIK
Take B1: the IC50 in [1] stood at 0.37 µg/mL; in test [2] it was 0.64 µg/mL; in test [3], 2.65 nM; in test [4], 2.43 nM; in test [5] it was 2.13 nM; in test [8] it was 0.5 µg/mL. In test [9], this molecule returned an IC50 of 2.4 nM. Further, the “fold less relative binding than MuTN228” value in test [6] is 2.6 fold. In addition, in test [7], the “fold less apparent binding affinity than MuTN228” value is approximately 2.4 fold.
